Assay [1] deals with mesendoderm spheroids. Conditions: 50 ng/mL, day 3 to day 7 (FIG. 3C). The source says:
To form various organs properly, the endoderm transforms into a primitive gut tube and is then regionalized along the dorsal-ventral (D-V) and anterior-posterior (A-P) axis into foregut, midgut, and hindgut under the control of various signaling pathways: BMP and TGF-b inhibition facilitate foregut formation, while Wnt and FGF activation facilitate mid/hindgut development.

Assay [2] has as its system Human pluripotency stem cells. The assay is described as follows: Mesoderm vs. endoderm induction in human pluripotent stem cell spheroids (FOXA2/HAND1 staining, first three days). It counts as cell-based. On the procedure: To recapitulate the gut tube organogenesis in vitro, a 3D suspension culture system to differentiate endoderm and mesoderm concomitantly from human iPSCs was established. By fine-tuning the dosage and timing of Wnt, Nodal (or TGF-b), and BMP activation, mesendoderm spheroids containing both definitive endodermal (DE, FOXA2+) and lateral plate mesoderm (LPM, HAND1+) populations were generated (FIG. 2A). It was also determined that ˜28 hours of the Wnt activation was a good duration for generating appropriate amounts of both DE and LPM populations from the iPSCs (approximately 1:1) (FIG. 2B). LPM derived splanchnic mesoderm (SM, FOXF1+) further gives rise to the mesenchyme surrounding the primitive gut tube. The SM will then differentiate into the connective tissue, smooth muscle cells (SMCs), and blood vessels of the endodermal organs.
• a) At Day −1, dissociate human iPSCs or human ESCs into single cells. • b) Using an Aggrewell plate (StemCell), or other compatible cell collection plate, generate spheroids of the pluripotent cells. Note: the number of cells in each microwell should be between 500-2000 cells. Accordingly, the spheroid diameter range should be from 50-200 μm. • c) Culture the cells in steady condition (37° C. cell incubator) overnight. Note: usually, the spheroid will form at day 0. […]

In assay [3] the test system is Embryoid bodies (EBs). Kind of assay: Single-cell RNA-seq of Day 3 meso/endoderm organoids. It counts as cell-based, human. As to conditions: accumulated stimulation (0, 1, 2, and 3 days), scRNA-seq at day 3 (FIG. 16E). The source says:
Embryoid bodies (EBs) receiving various duration of BMP4 stimulation (0, 1, 2, and 3 days) were subjected to single-cell RNA-seq at day 3 (FIG. 16A). They contained both mesoderm and endoderm populations. FIG. 16B depicts a feature plot of cell distributions under different BMP4 treatment durations. FIG. 16C depicts clustering of d3 meso/endoderm based on marker genes. FIG. 16D depicts a reference map comparison of d3 meso/endoderm to CS7 gastrulation human embryo AM: Advanced mesoderm; EM: Emergent mesoderm; PS: Primitive Streak. FIG. 16E depicts a cluster projection of day 3 meso/endoderm organoids to mouse early gastrulation embryos. i. UMAP of mouse E6.5˜E8.5 embryos. ii. Reverse projection of day 3 organoids to mouse embryos map.

Assay [4] concerns human vascularized gut tube organoids. The assay is described as follows: Single-cell RNA-seq of Day 7 vascularized foregut and mid/hindgut organoids, reverse projection to mouse E8.75 gut tube atlas. Type of assay: cell-based. The source says:
FIG. 17A depicts representative UMAP projection of foregut organoid (1-day treatment of BMP4 from day 1-3) and mid/hindgut organoid (3-days treatment of BMP4 from day 1-3). FIG. 17B-D depict reverse projection of human vascularized gut tube organoids to mouse E8.75 gut tube atlas. FIG. 17B depicts mouse E8.75 embryonic gut tube containing both anterior (A) and posterior (P) portion. Gut tube (endoderm), mesenchyme, and endothelium populations are segregated into A-P subclusters. FIG. 17C depicts Day 7 foregut organoid reverse projection to mouse E8.75 gut tube. […] FIG. 17D depicts Day 7 mid/hindgut organoid reverse projection to mouse E8.75 tube.

As for VEGF, the “vascular network (CD31+) surrounding the FOXA2+ epithelial layer” value in assay [1] is on record as “a significant amount of a vascular network (CD31+)”.

With `Cc1c[nH]c(-c2cnc(NCCNc3ccc(C#N)cn3)nc2-c2ccc(Cl)cc2Cl)n1` [CHIR99201, reference compound], the mesoderm/endoderm ratio entry in assay [2] (Activation of Wnt under different durations, first three days (FIG. 14A)) is “drastically changed mesoderm/endoderm ratio”.

B1: BMP4: BMP pathway activator, BMP protein (protein, UniProt P12644 293-408, looked up)
Bone morphogenetic protein 4: SPKHHSQRARKKNKNCRRHSLYVDFSDVGWNDWIVAPPGYQAFYCHGDCPFPLADHLNSTNHAIVQTLVNSVNSSIPKACCVPTELSAISMLYLDEYDKVVLKNYQEMVVEGCGCR
Take B1: in assay [2] (Prolonged treatment (FIG. 14B)), the mesoderm/endoderm ratio result is on record as “increased mesoderm/endoderm ratio”. For the same molecule, in assay [3], the mesenchymal population entry is given as “augmented mesenchymal population” and the neural lineage result is on record as “reduced neural lineage”. Moreover, in assay [4] (Day 7 foregut organoid, one-day treatment compared to no BMP4 (FIG. 17C)), the “anterior gut tube endoderm and endothelium populations” value was “generated purer anterior gut tube endoderm and more anterior endothelium”. Also, in assay [4] (Day 7 mid/hindgut organoid, longer treatment during the first three-day differentiation (FIG. 17D)), the “posterior gut tube endoderm, mesenchyme, and endothelium populations” value was “induced more posterior gut tube endoderm, mesenchyme, and endothelium”.

Source of the values: US20240318146A1, “VASCULARIZED ORGANOIDS” (CHILDREN’S HOSPITAL MEDICAL CENTER, priority 2021, published 2024).
